{"source": "paper PMC4960622", "about": "“Crystal structures of RidA, an important enzyme for the prevention of toxic side products” (Scientific Reports, 2016)", "parents": {"B1": {"name": "Arabidopsis thaliana RidA, construct starting from S68 (AtRidA-S68), wild type [Arabidopsis thaliana] / itself (parent)", "chain": "STEKAPAALGPYSQAIKANNLVFLSGVLGLIPETGKFVSESVEDQTEQVLKNMGEILKASGADYSSVVKTTIMLADLADFKTVNEIYAKYFPAPSPARSTYQVAALPLNAKIEIECIATL"}}, "data": [{"variants_of": "B1", "test": "size-exclusion chromatography (Superdex-75)", "details": "with itself; 0.5 mg protein loaded; read off a plot", "units": {"screen value": "mL"}, "values": [{"variant": "STEKAPAALGPYAQAIKANNLVFLSGVLGLIPETGKFVSESVEDQTEQVLKNMGEILKASGADYSSVVKTTIMLADLADFKTVNEIYAKYFPAPSPARSTYQVAALPLNAKIEIECIATL", "note": "[chain 1 S13A]", "screen value": 11.4}, {"variant": "STEKAPAALGPYSQAIKANNLVFLSGVLGLIPETGKFVSESVEDQTEQVLKNMGEILKASGADYSSVVKTTIMLADLADFKTVNEIYAKYFPAPSPARATYQVAALPLNAKIEIECIATL", "note": "[chain 1 S99A]", "screen value": 11.6}, {"variant": "STEKAPAALGPYSQAIKANNLVFLSGVLGLIPETGKFVSESVEDQTEQVLKNMGEILKASGADYSSVVRTTIMLADLADFKTVNEIYAKYFPAPSPARSTYQVAALPLNAKIEIECIATL", "note": "[chain 1 K69R]", "screen value": 11.4}, {"variant": "STEKAPAALGPYSQAIKANNLVFLSGVLGLIPETGKFVSESVEDQTEQVLKNMGEILKASGADYSSVVATTIMLADLADFKTVNEIYAKYFPAPSPARSTYQVAALPLNAKIEIECIATL", "note": "[chain 1 K69A]", "screen value": 12}, {"variant": "STEKAPAALGPYSQAIKANNLVFLSGVLGLIPETGKFVSESVEDQTEQVLKNMGEILKASGADYSSVVKTTIMLADLADFKTVNEIYAKYFPAPSPARSTYQVAALPLNAKIEIACIATL", "note": "[chain 1 E115A]", "screen value": 11.6}]}]}
